# Laboratory results from IntAct's records for PubMed 29892012.
# B1: Abl interactor 2 (Homo sapiens), Q9NYB9 (parent)
# chain: MAELQMLLEEEIPGGRRALFDSYTNLERVADYCENNYIQSADKQRALEETKAYTTQSLASVAYLINTLANNVLQMLDIQASQLRRMESSINHISQTVDIHKEKVARREIGILTTNKNTSRTHKIIAPANLERPVRYIRKPIDYTILDDIGHGVKWLLRFKVSTQNMKMGGLPRTTPPTQKPPSPPMSGKGTLGRHSPYRTLEPVRPPVVPNDYVPSPTRNMAPSQQSPVRTASVNQRNRTYSSSGSSGGSHPSSRSSSRENSGSGSVGVPIAVPTPSPPSVFPAPAGSAGTPPLPATSASAPAPLVPATVPSSTAPNAAAGGAPNLADGFTSPTPPVVSSTPPTGHPVQFYSMNRPASRHTPPTIGGSLPYRRPPSITSQTSLQNQMNGGPFYSQNPVSDTPPPPPPVEEPVFDESPPPPPPPEDYEEEEAAVVEYSDPYAEEDPPWAPRSYLEKVVAIYDYTKDKEDELSFQEGAIIYVIKKNDDGWYEGVMNGVTGLFPGNYVESIMHYSE
# Variants of: B1
# Conditions: with ift20_human IFT20, Q8IY31
# Chain of ift20_human IFT20, Q8IY31 (Q8IY31 whole entry): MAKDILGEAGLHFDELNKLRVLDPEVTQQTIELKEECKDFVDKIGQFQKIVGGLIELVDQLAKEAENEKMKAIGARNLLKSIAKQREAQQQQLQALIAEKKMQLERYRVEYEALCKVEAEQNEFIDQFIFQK
row,effect of a mutation on the interaction,Variant
1,with no effect,R373C

# Variants of: B1
# Conditions: with k1h1_human KRT31, Q15323
# Chain of k1h1_human KRT31, Q15323 (Q15323 whole entry): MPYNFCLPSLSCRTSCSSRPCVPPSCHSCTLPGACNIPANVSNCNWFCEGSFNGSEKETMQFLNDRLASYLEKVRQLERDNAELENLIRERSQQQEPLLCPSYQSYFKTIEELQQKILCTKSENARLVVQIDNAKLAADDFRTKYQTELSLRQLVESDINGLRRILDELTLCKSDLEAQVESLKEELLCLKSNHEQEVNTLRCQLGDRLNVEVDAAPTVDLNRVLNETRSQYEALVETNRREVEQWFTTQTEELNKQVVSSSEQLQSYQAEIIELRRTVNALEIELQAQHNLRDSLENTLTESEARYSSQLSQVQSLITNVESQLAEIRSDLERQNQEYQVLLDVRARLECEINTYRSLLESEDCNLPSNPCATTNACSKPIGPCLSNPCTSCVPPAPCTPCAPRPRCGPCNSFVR
row,effect of a mutation on the interaction,Variant
1,with no effect,R373C

# Variants of: B1
# Conditions: with aapk2_human PRKAA2, P54646
# Chain of aapk2_human PRKAA2, P54646 (P54646 whole entry, looked up): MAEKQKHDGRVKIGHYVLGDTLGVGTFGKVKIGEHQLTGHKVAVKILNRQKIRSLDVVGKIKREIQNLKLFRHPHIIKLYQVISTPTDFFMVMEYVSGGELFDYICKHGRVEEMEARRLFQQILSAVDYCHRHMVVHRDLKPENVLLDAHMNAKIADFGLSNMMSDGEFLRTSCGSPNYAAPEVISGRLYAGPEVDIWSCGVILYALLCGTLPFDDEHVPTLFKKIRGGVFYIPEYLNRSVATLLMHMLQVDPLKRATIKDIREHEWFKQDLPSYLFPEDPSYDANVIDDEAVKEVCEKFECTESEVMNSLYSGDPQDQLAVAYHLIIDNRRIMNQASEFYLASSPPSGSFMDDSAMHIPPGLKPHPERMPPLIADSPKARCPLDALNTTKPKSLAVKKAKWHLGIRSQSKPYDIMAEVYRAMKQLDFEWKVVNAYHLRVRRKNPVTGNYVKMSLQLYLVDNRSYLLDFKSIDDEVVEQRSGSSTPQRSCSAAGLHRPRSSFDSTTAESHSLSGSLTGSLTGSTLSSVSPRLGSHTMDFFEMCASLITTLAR
row,effect of a mutation on the interaction,Variant
1,with no effect,R373C

# Variants of: B1
# Conditions: with stam2_human STAM2, O75886
row,effect of a mutation on the interaction,Variant
1,with no effect,R373C

# Variants of: B1
# Conditions: with aapk1_human PRKAA1, Q13131
# Chain of aapk1_human PRKAA1, Q13131 (Q13131 whole entry, looked up): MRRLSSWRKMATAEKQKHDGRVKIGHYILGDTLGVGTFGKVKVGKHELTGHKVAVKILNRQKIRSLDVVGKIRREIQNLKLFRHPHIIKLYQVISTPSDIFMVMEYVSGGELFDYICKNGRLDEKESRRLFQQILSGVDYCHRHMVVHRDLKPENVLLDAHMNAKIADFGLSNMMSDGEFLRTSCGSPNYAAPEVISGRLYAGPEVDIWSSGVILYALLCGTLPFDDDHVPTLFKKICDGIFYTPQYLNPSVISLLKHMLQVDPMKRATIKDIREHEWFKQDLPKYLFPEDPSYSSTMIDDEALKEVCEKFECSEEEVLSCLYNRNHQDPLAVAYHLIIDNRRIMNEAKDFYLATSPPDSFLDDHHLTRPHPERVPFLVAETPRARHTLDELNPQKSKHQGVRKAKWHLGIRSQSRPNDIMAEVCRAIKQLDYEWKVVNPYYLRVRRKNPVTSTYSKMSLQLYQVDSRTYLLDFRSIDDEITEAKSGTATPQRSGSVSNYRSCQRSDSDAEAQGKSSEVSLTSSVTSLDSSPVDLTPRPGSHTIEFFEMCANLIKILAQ
row,effect of a mutation on the interaction,Variant
1,with no effect,R373C

# Variants of: B1
# Conditions: with hnrpk_human HNRNPK
row,effect of a mutation on the interaction,Variant
1,with no effect,R373C

# Variants of: B1
# Conditions: with vasp_human VASP
row,effect of a mutation on the interaction,Variant
1,with no effect,R373C

# Variants of: B1
# Conditions: with KRT15, P19012
# Chain of KRT15, P19012 (P19012 whole entry): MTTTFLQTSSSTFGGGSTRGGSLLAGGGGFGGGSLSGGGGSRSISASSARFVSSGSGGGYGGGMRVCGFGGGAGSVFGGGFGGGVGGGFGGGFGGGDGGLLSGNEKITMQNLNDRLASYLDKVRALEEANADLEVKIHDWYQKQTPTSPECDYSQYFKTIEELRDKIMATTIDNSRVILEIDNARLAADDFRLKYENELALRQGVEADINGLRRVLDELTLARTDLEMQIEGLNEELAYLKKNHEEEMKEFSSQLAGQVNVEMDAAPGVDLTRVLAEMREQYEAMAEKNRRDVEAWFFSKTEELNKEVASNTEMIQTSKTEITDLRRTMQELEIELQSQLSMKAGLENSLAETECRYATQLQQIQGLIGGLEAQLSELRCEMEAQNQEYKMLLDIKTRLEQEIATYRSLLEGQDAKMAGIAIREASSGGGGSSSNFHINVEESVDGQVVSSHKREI
row,effect of a mutation on the interaction,Variant
1,with no effect,R373C

# Variants of: B1
# Conditions: with nup62_human NUP62, P37198
# Chain of nup62_human NUP62, P37198 (P37198 whole entry): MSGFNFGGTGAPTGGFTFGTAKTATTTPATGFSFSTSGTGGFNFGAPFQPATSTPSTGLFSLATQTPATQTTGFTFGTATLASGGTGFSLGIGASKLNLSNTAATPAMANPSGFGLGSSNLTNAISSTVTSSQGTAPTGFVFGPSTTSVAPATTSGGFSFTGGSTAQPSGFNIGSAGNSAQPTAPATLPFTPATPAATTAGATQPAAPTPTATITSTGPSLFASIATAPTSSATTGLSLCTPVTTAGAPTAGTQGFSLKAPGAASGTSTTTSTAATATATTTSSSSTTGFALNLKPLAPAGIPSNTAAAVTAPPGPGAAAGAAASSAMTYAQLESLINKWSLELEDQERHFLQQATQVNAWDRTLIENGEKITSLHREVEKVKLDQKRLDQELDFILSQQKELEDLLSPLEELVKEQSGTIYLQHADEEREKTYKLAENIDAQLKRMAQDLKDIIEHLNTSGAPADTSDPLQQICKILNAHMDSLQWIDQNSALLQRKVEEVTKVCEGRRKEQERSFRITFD
row,effect of a mutation on the interaction,Variant
1,with no effect,R373C

# Variants of: B1
# Conditions: with KRT19, P08727
# Chain of KRT19, P08727 (P08727 whole entry): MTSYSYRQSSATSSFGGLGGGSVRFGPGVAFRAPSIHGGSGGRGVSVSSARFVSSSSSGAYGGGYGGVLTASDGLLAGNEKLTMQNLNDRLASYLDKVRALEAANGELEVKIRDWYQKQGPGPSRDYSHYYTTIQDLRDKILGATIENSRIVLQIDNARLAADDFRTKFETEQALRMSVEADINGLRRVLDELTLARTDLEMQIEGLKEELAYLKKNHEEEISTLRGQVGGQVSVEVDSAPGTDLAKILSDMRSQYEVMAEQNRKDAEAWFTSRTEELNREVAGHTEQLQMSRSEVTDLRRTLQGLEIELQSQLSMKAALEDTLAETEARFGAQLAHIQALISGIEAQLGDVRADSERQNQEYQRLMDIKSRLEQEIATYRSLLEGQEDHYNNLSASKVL
row,effect of a mutation on the interaction,Variant
1,with no effect,R373C

# Variants of: B1
# Conditions: with nck2_human NCK2, O43639
# Chain of nck2_human NCK2, O43639 (O43639 whole entry): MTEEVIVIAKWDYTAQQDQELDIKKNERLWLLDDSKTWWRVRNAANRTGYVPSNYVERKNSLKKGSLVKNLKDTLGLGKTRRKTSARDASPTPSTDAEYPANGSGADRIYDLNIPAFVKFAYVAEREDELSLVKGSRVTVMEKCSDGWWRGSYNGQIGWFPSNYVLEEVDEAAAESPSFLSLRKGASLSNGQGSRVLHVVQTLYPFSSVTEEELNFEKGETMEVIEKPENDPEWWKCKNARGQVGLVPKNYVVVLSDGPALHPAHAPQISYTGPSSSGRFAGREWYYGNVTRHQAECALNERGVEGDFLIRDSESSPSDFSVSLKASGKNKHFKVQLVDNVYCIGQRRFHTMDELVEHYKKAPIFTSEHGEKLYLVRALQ
row,effect of a mutation on the interaction,Variant
1,with no effect,R373C

# Variants of: B1
# Conditions: with hgs_human HGS
row,effect of a mutation on the interaction,Variant
1,with no effect,R373C

# Variants of: B1
# Conditions: with sdcb1_human SDCBP
row,effect of a mutation on the interaction,Variant
1,with no effect,R373C

# Variants of: B1
# Conditions: with tri32_human TRIM32, Q13049
# Chain of tri32_human TRIM32, Q13049 (Q13049 whole entry): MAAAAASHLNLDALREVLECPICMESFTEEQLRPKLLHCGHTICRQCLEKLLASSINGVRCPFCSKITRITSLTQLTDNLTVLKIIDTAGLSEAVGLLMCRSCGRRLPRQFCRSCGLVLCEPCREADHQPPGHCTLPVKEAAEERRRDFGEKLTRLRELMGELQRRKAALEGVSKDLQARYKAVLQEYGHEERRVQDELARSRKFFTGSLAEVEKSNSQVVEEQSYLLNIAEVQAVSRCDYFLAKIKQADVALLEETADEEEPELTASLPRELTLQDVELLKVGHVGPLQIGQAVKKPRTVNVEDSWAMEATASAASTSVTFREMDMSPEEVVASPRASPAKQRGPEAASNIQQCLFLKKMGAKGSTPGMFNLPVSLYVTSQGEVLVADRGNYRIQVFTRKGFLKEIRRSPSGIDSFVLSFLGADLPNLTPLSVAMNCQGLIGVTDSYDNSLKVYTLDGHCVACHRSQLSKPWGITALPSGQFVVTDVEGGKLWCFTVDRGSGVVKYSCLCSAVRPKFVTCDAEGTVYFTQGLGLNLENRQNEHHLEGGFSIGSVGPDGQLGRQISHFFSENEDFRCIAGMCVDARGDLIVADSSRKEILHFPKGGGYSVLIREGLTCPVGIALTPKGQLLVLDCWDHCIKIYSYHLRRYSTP
row,effect of a mutation on the interaction,Variant
1,with no effect,R373C

# Variants of: B1
# Conditions: with pcm1_human PCM1, Q15154
row,effect of a mutation on the interaction,Variant
1,with no effect,R373C

# Variants of: B1
# Conditions: with vinc_human VCL
row,effect of a mutation on the interaction,Variant
1,with no effect,R373C

# Variants of: B1
# Conditions: with crx_human CRX
row,effect of a mutation on the interaction,Variant
1,with no effect,R373C

# Variants of: B1
# Conditions: with mr1l1_human MRFAP1L1, Q96HT8
# Chain of mr1l1_human MRFAP1L1, Q96HT8 (Q96HT8 whole entry): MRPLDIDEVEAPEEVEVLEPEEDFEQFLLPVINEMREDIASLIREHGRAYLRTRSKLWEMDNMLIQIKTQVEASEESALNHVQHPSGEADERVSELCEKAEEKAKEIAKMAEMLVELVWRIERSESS
row,effect of a mutation on the interaction,Variant
1,with no effect,R373C

# Variants of: B1
# Conditions: with efs_human EFS
row,effect of a mutation on the interaction,Variant
1,with no effect,R373C
